Measurements taken from US20200308292A1.

Experiments:
[1] = biological target: human insulin receptor extracellular domain (HIR ECD) (human) (UniProt P06213); test: ELISA, HIR ECD plated, biotinylated anti-human IgG detection
[2] = biological target: human insulin receptor extracellular domain (HIR ECD) (human) (UniProt P06213); test: ELISA, HIR ECD plated; against the HIR Ab as reference

EC50 [1] [nM] | reduction in receptor binding affinity [2] [%] | Substance
0.81 |  | HIR Ab-GUSB fusion protein (GUSB fused to the carboxyl terminus of the HIR Ab heavy chain) (from UniProt P08236 23-633) (antibody)
4.8 | 95 | GUSB-HIR Ab fusion protein (GUSB fused to the amino terminus of the HIR Ab heavy chain) (from UniProt P08236 23-633) (antibody)
